Consider 1 molecule from patent US20110190218A1 (KARLSRUHE INSTITUTE OF TECHNOLOGY, published 2011).

For the assay, the target named is GST-Bag-1L-(202-345) (human, UniProt P08515 1-218 = GST; Q99933 202-345). Nature of the assay: GST pull-down from lysates of Bag-1L-transfected cells, immunoblot with Bag-1L specific antibody. On the technique in general: A western blot detects proteins with antibodies after separation by electrophoresis.

B1: Bag-1L (in lysates from Bag-1L-transfected cells) (other)
chain: MAQRGGARRPRGDRERLGSRLRALRPGREPRQSEPPAQRGPPPSGRPPARSTASGHDRPTRGAAAGARRPRMKKKTRRRSTRSEELTRSEELTLSEEATWSEEATQSEEATQGEEMNRSQEVTRDEESTRSEEVTREEMAAAGLTVTVTHSNEKHDLHVTSQQGSSEPVVQDLAQVVEEVIGVPQSFQKLIFKGKSLKEMETPLSALGIQDGCRVMLIGKKNSPQEEVELKKLKHLEKSVEKIADQLEELNKELTGIQQGFLPKDLQAEALCKLDRRVKATIEQFMKILEEIDTLILPENFKDSRLKRKGLVKKVQAFLAECDTVEQNICQETERLQSTNFALAE
notes: Untagged Bag-1L as the soluble partner in the test for dimerization; also called human Bag-1L; p50
As to B1, the binding result is “no binding”.
